# Test results published in publication PMC3645732, “A Differential Redox Regulation of the Pathways Metabolizing Glyceraldehyde-3-Phosphate Tunes the Production of Reducing Power in the Cytosol of Plant Cells” (International Journal of Molecular Sciences, 2013).
# B1: Ga3PDHase (phosphorylating NAD+-dependent glyceraldehyde-3-phosphate dehydrogenase, EC 1.2.1.12) (Triticum aestivum) (protein)
# chain: MGKIKIGINGFGRIGRLVARVALQSPDVELVAVNDPFITTDYMTYMFKYDTVHGQWKHHEVKVKDSKTLLFGEKEVAVFGCRNPEEIPWAAAGAEYVVESTGVFTDKDKAAAHIKGGAKKVIISAPSKDAPMFVCGVNEKEYKSDIDIVSNASCTTNCLAPLAKVINDRFGIVEGLMTTVHAMTATQKTVDGPSSKDWRGGRAASFNIIPSSTGAAKAVGKVLPELNGKLTGMAFRVPTVDVSVVDLTVRLAKPATYDQIKAAIKEESEGNLKGILGYVDEDLVSTDFQGDNRSSIFDAKAGIALNDHFVKLVSWYDNEWGYSTRVVDLIRHMHSTK
# notes: recombinant wheat gapC (NCBI EF592180), homotetramer, E. coli
# Substrate: NC(=O)c1ccc[n+]([C@@H]2O[C@H](COP(=O)([O-])OP(=O)(O)OC[C@H]3O[C@@H](n4cnc5c(N)ncnc54)[C@H](O)[C@@H]3O)[C@@H](O)[C@H]2O)c1
# Assay: purified protein
# Assay type: biochemical, Triticum aestivum
protein,measurement,value
B1,K0.5,136 µM
